This is an account of results in patent US20070059304A1 (Pfizer, published 2007).

Test [1] concerns the target human TrkC expressed on HEK-293 cells (human) (UniProt Q16288). The test is described as follows: cell-based or functional assay.
In test [2] the target is human TrkA expressed on HEK-293 cells (human) (UniProt P04629). In words: cell-based or functional assay.
Test [3] deals with human TrkB (full length), expressed on the surface of HEK-293 cells (human, UniProt Q16620 32-822). In words: cell-based or functional assay.
The target of test [4] is T1, rhTrkB-EDC-Fc: recombinant protein that includes the extracellular domain of human TrkB fused to the Fc … (human, UniProt Q16620 32-430).
T1 construct: bought (R&D system, Cat. No. 688-TK); also called human TrkB (ELISA); not shown: Fc region of human IgG1
The test is described as follows: ELISA on coated rhTrkB-EDC-Fc (ED50).

Test [5] addresses T1, rhTrkB-EDC-Fc: recombinant protein that …. The test is described as follows: competition ELISA: rhTrkB-EDC-Fc binding to coated BDNF.

Sequence of human TrkB (full length), expressed on the surface of HEK-293 cells (Q16620 other isoform, or with tags, fused parts or gaps limits assumed): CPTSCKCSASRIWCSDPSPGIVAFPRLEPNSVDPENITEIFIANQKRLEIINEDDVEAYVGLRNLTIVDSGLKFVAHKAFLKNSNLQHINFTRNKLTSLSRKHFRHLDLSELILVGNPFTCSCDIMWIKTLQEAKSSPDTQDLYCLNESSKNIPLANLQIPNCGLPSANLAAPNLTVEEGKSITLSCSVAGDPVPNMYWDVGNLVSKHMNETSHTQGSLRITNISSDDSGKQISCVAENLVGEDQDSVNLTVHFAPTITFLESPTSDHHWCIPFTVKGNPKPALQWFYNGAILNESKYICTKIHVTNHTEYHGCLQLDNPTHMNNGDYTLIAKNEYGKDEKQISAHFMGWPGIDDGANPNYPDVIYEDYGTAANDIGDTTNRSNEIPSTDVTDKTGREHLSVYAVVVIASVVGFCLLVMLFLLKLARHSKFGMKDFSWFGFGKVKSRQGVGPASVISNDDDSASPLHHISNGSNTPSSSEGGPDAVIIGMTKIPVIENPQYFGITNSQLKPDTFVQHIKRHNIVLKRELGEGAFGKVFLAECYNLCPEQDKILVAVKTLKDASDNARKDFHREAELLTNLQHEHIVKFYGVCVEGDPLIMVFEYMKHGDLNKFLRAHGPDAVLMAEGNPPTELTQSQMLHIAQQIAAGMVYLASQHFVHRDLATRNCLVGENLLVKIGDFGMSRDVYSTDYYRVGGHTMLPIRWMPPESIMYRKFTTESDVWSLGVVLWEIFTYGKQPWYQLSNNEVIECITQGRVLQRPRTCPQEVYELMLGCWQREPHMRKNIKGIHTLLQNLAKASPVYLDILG
T1 sequence (Q16620 32-430): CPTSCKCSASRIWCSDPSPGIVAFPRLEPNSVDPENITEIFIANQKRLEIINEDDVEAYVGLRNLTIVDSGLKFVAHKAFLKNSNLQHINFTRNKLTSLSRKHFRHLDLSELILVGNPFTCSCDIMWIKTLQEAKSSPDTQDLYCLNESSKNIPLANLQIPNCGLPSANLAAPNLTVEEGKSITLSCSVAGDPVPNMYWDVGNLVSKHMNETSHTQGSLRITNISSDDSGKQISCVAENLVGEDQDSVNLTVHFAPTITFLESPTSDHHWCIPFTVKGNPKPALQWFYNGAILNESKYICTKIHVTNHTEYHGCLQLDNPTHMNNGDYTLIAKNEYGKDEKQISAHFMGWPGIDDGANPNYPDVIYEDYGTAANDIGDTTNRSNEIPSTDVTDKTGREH
Sequence of human TrkC expressed on HEK-293 cells (human) (Q16288 32-839 S70N limits assumed): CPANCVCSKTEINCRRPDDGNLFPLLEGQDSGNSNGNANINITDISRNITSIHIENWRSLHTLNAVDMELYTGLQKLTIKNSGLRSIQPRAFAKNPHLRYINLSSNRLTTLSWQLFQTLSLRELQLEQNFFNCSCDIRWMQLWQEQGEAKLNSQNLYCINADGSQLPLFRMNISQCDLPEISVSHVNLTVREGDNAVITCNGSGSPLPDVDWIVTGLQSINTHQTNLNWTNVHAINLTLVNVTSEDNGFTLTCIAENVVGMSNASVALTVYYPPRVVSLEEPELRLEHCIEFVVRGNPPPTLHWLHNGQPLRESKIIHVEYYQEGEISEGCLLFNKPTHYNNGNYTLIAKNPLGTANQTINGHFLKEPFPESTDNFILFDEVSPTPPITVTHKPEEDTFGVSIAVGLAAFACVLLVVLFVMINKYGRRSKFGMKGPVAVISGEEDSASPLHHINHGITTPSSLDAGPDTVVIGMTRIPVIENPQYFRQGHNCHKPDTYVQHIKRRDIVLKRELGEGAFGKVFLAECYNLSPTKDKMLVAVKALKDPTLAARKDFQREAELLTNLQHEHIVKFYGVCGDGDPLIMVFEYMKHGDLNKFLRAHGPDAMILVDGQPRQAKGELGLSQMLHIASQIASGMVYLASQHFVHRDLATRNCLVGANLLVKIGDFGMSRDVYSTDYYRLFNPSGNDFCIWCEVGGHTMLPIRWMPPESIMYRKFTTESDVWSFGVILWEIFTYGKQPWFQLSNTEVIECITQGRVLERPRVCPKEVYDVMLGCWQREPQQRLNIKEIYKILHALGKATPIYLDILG
Sequence of human TrkA expressed on HEK-293 cells (human) (P04629 33-796 limits assumed): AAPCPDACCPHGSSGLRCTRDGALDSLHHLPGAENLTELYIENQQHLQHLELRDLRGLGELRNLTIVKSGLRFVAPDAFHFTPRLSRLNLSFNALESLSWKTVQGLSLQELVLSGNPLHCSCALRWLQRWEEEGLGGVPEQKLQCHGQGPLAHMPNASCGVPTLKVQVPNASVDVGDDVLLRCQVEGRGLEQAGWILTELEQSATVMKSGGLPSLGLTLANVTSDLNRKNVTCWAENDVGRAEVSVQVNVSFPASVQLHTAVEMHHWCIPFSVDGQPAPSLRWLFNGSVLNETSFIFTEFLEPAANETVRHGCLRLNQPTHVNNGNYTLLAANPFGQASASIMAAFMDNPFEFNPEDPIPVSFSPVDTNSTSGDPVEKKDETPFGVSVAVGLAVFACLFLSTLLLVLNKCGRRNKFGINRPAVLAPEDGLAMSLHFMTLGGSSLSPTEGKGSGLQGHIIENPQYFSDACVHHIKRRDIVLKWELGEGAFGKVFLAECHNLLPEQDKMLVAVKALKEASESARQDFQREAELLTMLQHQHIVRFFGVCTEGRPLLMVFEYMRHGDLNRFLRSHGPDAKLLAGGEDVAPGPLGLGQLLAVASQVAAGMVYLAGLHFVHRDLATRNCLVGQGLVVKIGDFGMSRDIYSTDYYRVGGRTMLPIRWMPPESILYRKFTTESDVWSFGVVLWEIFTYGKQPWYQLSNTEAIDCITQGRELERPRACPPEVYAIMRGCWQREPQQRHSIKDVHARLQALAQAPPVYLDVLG

NT-3 (ligand) returned a TrkC luciferase assay: signal at 300 ng/ml NT-3 (fold over basal) in test [1] of 6. In test [2], NGF (ligand) displayed a TrkA luciferase assay: signal at 300 ng/ml NGF (fold over basal) of 6.

B1: 4C7 (antibody)
chain 1: QVQLVQSGAEVKKPGASVKVSCKASGYTFTNYVILWVRQAPGQGLEWMGYINPYNDGTKYNEKFKGRVTMTRDTSTSTVYMELSSLRSEDTAVYYCARLLKYRRFSYYAIDYWGQGTTVTVSS
chain 2: DIQMTQSPSSLSASVGDRVTITCRASENVYSNLAWYQQKPGKAPKLLIYAASNLQSGVPSRFSGSGSGTDFTFTISSLQPEDIATYYCQHFWGSPFTFGQGTKLEIK
Turning to B1, the “luciferase assay, HEK-293 cells expressing rhTrkB: EC50” value in test [3] was approximately 0.1 nM. Also, the EC50 in test [4] was found to be 0.017 nM. In test [5], the IC50 was determined as 0.3 nM.

B2: BDNF (ligand, UniProt P23560 129-247, looked up)
chain: HSDPARRGELSVCDSISEWVTAADKKTAVDMSGGTVTVLEKVPVSKGQLKQYFYETKCNPMGYTKEGCRGIDKRHWNSQCRTTQSYVRALTMDSKKRIGWRFIRIDTSCVCTLTIKRGR
On to B2, for which the “luciferase assay, HEK-293 cells expressing rhTrkB: signal at 200 ng/ml BDNF” value in test [3] came out at 6.2 fold over basal.

Broadly, the EC50 is the concentration needed to bring the measured effect to its halfway point. A word on the IC50: it is the point on the concentration scale where inhibition reaches its midpoint.
